Test results from patent US20170247475A1 (Boehringer Ingelheim, published 2017).

What was measured:
VEGF [1] = assay: cell-based or functional assay
VEGF [2] = assay: cell-based or functional assay; remark: listed apart in the source
[3] = molecular target: T1, recombinant human VEGF165 (human, UniProt P15692-4 27-191); assay: VEGF165/VEGFR2 AlphaScreen
T1 construct: also called hVEGF165; rhVEGF165
Target sequence in this assay (P15692 other isoform, or with tags, fused parts or gaps limits assumed): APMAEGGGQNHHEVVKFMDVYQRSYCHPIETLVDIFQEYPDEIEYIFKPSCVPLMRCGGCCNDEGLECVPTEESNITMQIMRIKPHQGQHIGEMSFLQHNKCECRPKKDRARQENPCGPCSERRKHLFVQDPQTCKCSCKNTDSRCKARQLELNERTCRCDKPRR

[4] = molecular target: T2, recombinant human VEGF121 (human, UniProt P15692-9 27-147); assay: binding ELISA, coated rhVEGF121
T2 construct: also called rhVEGF121; hVEGF121
T2 sequence (looked up): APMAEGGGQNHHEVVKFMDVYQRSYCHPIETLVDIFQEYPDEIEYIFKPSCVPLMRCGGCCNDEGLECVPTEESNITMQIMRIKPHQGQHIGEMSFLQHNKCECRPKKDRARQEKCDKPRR
Method: Binding to recombinant human VEGF121 is assessed via a solid phase binding ELISA. Briefly, recombinant human VEGF121 (R&D Systems, Minneapolis, Minn., USA) is coated overnight at 4° C. at 1 μg/mL in a 96-well MaxiSorp plate (Nunc, Wiesbaden, Germany). Wells are blocked with a casein solution (1% in PBS).

[5] = molecular target: T1, recombinant human VEGF165; assay: Biacore on VEGF165 (Example 5.5)
Method: (§1) Samples are injected for 2 min and allowed to dissociate up to 20 min at a flow rate of 45 μI/min. In between sample injections, the chip surface is regenerated with 100 mM HCl. HBS-EP+(Hepes buffer pH7.4+EDTA) is used as running buffer. Binding curves are fitted using a Two State Reaction model by Biacore T100 Evaluation Software v2.0.1.
Target sequence in this assay (P15692 other isoform, or with tags, fused parts or gaps limits assumed): as the sequence (P15692 other isoform, or with tags, fused parts or gaps limits assumed) above

[6] = molecular target: T1, recombinant human VEGF165; assay: VEGF165/VEGFR2 blocking AlphaScreen
Target sequence in this assay (P15692 other isoform, or with tags, fused parts or gaps limits assumed): as the sequence (P15692 other isoform, or with tags, fused parts or gaps limits assumed) above

[7] = molecular target: T1, recombinant human VEGF165; assay: hVEGF165/hVEGFR2-Fc competition ELISA
Target sequence in this assay (P15692 other isoform, or with tags, fused parts or gaps limits assumed): as the sequence (P15692 other isoform, or with tags, fused parts or gaps limits assumed) above

[8] = molecular target: T1, recombinant human VEGF165; assay: hVEGF165/hVEGFR2-Fc competition AlphaScreen
Method: Finally, streptavidin donor beads (20 μg/ml) are added and after 1 hour of incubation in the dark, fluorescence is measured on the Envision microplate reader.
Target sequence in this assay (P15692 other isoform, or with tags, fused parts or gaps limits assumed): as the sequence (P15692 other isoform, or with tags, fused parts or gaps limits assumed) above

[9] = molecular target: T1, recombinant human VEGF165; assay: SPR Biacore T100, hVEGF165 on chip, Two State Reaction model
Method: as §1
(§2) ^{(a)}Heterogeneous binding curve resulting in no 1:1 fit, curves are fitted using a Two State Reaction model by Biacore T100 Evaluation Software v2.0.1
Target sequence in this assay (P15692 other isoform, or with tags, fused parts or gaps limits assumed): as the sequence (P15692 other isoform, or with tags, fused parts or gaps limits assumed) above

[10] = molecular target: T1, recombinant human VEGF165; assay: ka1; SPR Biacore T100, hVEGF165 on chip, Two State Reaction model
Method: as §1, §2

[11] = molecular target: T1, recombinant human VEGF165; assay: KD1; SPR Biacore T100 on hVEGF165
[12] = molecular target: T1, recombinant human VEGF165; assay: ka1; SPR Biacore T100 on hVEGF165
[13] = molecular target: T1, recombinant human VEGF165; assay: competition AlphaScreen, blocking of hVEGF165 binding to hVEGFR2-Fc
[14] = molecular target: T1, recombinant human VEGF165; assay: AlphaScreen competition, 0.05 nM hVEGF165 and 0.05 nM hVEGFR2-Fc; blocked: hVEGFR2-Fc
[15] = molecular target: T1, recombinant human VEGF165; assay: as above; remark: listed apart in the source
[16] = molecular target: T1, recombinant human VEGF165; assay: as above; remark: listed apart in the source
[17] = molecular target: T1, recombinant human VEGF165; assay: AlphaScreen competition, 0.05 nM hVEGF165 and 0.05 nM hVEGFR1-Fc; blocked: hVEGFR1-Fc
[18] = molecular target: T1, recombinant human VEGF165; assay: as above; remark: listed apart in the source
[19] = molecular target: T1, recombinant human VEGF165; assay: as above; remark: listed apart in the source
[20] = molecular target: T1, recombinant human VEGF165; assay: AlphaScreen competition, 0.05 nM hVEGF165 and 0.05 nM hVEGFR2-Fc; blocked: hVEGFR2-Fc; remark: listed apart in the source
[21] = molecular target: T1, recombinant human VEGF165; assay: as above; remark: listed apart in the source
[22] = molecular target: T1, recombinant human VEGF165; assay: AlphaScreen competition, 0.05 nM hVEGF165 and 0.05 nM hVEGFR1-Fc; blocked: hVEGFR1-Fc; remark: listed apart in the source

B1: VEGFBII23B04 (VHH)
VHH: EVQLVESGGGLVQTGDSLRLSCEVSGRTFSSYSMGWFRQAQGKEREFVVAISKGGYKYDSVSLEGRFTISKDNAKNTVYLQINSLKPEDTAVYYCASSRAYGSSRLRLADTYEYWGQGTQVTVSS
notes: also called VEGFBII23B4; VEGFBII23B04 (wt)
IC50 (nM), VEGF HUVEC Erk phosphorylation assay (VEGF [1]): 0.37 nM
% inhibition, VEGF HUVEC proliferation assay (VEGF [2]): 92%
IC50 (nM), VEGF HUVEC proliferation assay (VEGF [2]): 0.68 nM
% inhibition [3]: 100%
IC50 [3]: 169 pM
EC50 [4]: 510 pM
Kd [5]: 560 pM
% inhibition [6]: 100%
IC50 [6]: 152 pM
% inhibition [7]: 100%
IC50 [7]: 2100 pM
% inhibition [8]: 100%
IC50 [8]: 160 pM
Kd [9]: 700 pM
kd2 [9]: 0.00024 s⁻¹
kon [10]: 210000 M⁻¹ s⁻¹

B2: VEGFBII038 (VHH)
VHH: DVQLVESGGGLVQPGGSLRLSCAASGRTFSSYSMGWFRQAPGKEREFVVAISKGGYKYDAVSLEGRFTISRDNAKNTVYLQINSLRPEDTAVYYCASSRAYGSSRLRLADTYEYWGQGTLVTVSS
notes: also called VEGFBII0038; VEGFBII00038
% inhibition, VEGF HUVEC proliferation assay (VEGF [2]): 92%
IC50 (nM), VEGF HUVEC proliferation assay (VEGF [2]): 0.6 nM
Kd [5]: 360 pM
Kd [11]: 750 pM
kon [12]: 260000 M⁻¹ s⁻¹
% inhibition [6]: 100%
IC50 [6]: 143 pM
IC50 (read off the curve) [13]: ~400 pM
IC50 (read off the curve) [14]: ~500 pM
IC50 (read off the curve) [15]: ~400 pM
IC50 (read off the curve) [16]: ~500 pM
IC50 (read off the curve) [17]: ~500 pM
IC50 (read off the curve) [18]: ~500 pM
IC50 (read off the curve) [19]: ~800 pM
IC50 (read off the curve) [20]: ~200 pM
IC50 (read off the curve) [21]: ~200 pM
IC50 (read off the curve) [22]: ~300 pM
